Data reported in patent publication US8569578B1, “Generating transgenic potatoes with novel resistance to potato cyst nematodes by silencing nematode parasitism genes of CLE -1 and CLE-4s” (The United States of America, as represented by the …, priority 2009, dated 2013).
“Also recorded” adds a separate entry of the source.

Legend:
potato hairy roots = assay: overexpression of Gr-CLE genes in potato hairy roots; assay type: in vivo; conditions: measured at 4, 6, 8 and 10 days after dissecting; compared with vector control
From the text: To examine root meristems, primary root tips were excised from peptide treated Arabidopsis seedlings or from transgenic potato hairy roots and immediately mounted in water onto a glass slide. Roots were examined under an Olympus BX-50 microscope equipped with Nomarski optics and images were captured using a QImaging Retiga EXi digital CCD camera (QImaging, Surrey, BC, Canada). The root apical meristem (RAM) regions of individual primary roots that covered the distance from the position around the quiescent center to the position where elongated root cells immediately follow cytoplasm-dense meristematic cells were measured microscopically. The collected data were analyzed using the MetaMorph imaging analysis software (Universal Imaging Corporation, Downingtown, Pa., U.S.A.)
A. rhizogenes strain 15834 was transformed with individual transgene constructs of interest and used for the generation of potato hairy roots as described previously (Wang et al. 2007. Mol. Plant Pathol. 8:423-436) with some modifications. Potato stem pieces from tissue cultures were incubated with the transformed A. rhizogenes cell suspension for 10 mins, then transferred onto the callus induction medium containing 1×MS salts (Sigma-Aldrich), 26.7 μM Glycine, 4 μM Nicotinic Acid, 2.4 μM Pyridoxine HCL (Sigma-Aldrich), 1.2 μM Thiamine HCL (Sigma-Aldrich), 0.5 μM Folic Acid, 0.2 μM d-biotin (Sigma-Aldrich), 0.01% Myo-inositol (Acros, Morris Plains, N.J., U.S.A.), 3% sucrose, 0.001% 6-BAP (Sigma-Aldrich), 0.002% NAA (Sigma-Aldrich), and 1% agar and cultivated for four days at 24° C. without light. The infected stem pieces were then cultured on the propagation medium containing 1×MS salts, 1.2 mM NaH2PO4, 0.01% Myo-inositol, 0.1% Thiamine HCl, 3% sucrose, 1% agar, 50 μg/mL of kanamycin, and 238 μg/mL of timentin (GlaxoSmithKline). Timentin was used to inhibit the growth of A. rhizogenes 15834 and kanamycin was added to select for transformed roots. Approximately 12-15 days after root emergence, 1 cm-long root tips were dissected and cultured on vertical plates containing the propagation medium with 119 μg/mL of timentin and the root growth rate was measured at different time points.

[1] = system: Arabidopsis clv3-2 mutant plants; assay: complementation of clv3-2 mutant by Gr-CLE genes under CLV3 promoter; assay type: in vivo; conditions: gene under control of CLV3 promoter in clv3-2
From the text: Gr-CLE proteins can completely or partially replace CLV3 activity within meristems. For the complementation study, Gr-CLE genes were subcloned into pBU14 under the control of the CLV3 promoter (Brand et al. 2002. Plant Physiol. 129:565-575). To generate the PCLV3:Gr-CLE-1 construct, primer pair of CLE1-spF and CLE1-TGAxbaR was used. To generate PCLV3:Gr-CLE-4-B and PCLV3:Gr-CLE-4-C constructs, primer pair of CLE4B1-spF and 4B1-TGAxbaR was used. Each amplified PCR product was cloned into pBU14 at BamHI and XbaI sites. Arabidopsis clv3-2 mutant plants were transformed with A. tumefaciens GV3101 harboring each of the above constructs.
All transformants were selected on ½×MS medium containing 50 μg/mL of kanamycin (Sigma-Aldrich) (for the pMD1 vector) or 30 μg/mL of glufosinate ammonium (Fisher, Pittsburgh, Pa., U.S.A.) (for the pBU14 vector) and transgenic Arabidopsis plants were then cultivated at 24° C. for 16 h of light and 8 h of dark in a growth room. For measuring the root growth rate, transgenic plants expressing individual Gr-CLE genes or the empty vector were first selected on kanamycin containing medium for five days, then transferred to ½×MS plates and cultured vertically at 24° C. for 16 h of light and 8 h of dark in a growth chamber (Percival, Perry, Iowa, U.S.A.).
Gr-CLE-1, Gr-CLE-4-B, and Gr-CLE-4-C were the most representative Gr-CLE genes identified. To determine if these genes could replace CLV3 activity in the shoot and floral meristems, the full-length sequences of these three genes were cloned under the control of the CLV3 promoter and introduced into Arabidopsis clv3-2 mutant plants. clv mutants have enlarged shoot and floral meristems that lead to shoot fasciation and formation of extra floral organs including an increase in carpel number (Clark et al. 1993, 1995; Kayes and Clark 1998). For example, flowers of a clv3-2 mutant usually have six to seven carpels in the fourth whorl (Clark et al. 1995), whereas wild-type flowers have only two carpels in the fourth whole. Carpel number is a sensitive measurement for meristem size (Clark et al. 1993; Ni and Clark 2006). Multiple independent transgenic lines for each transgene were obtained and analyzed (Table 2).

Molecule | length of primary roots of transgenic potato hairy root lines (potato hairy roots) | average number of carpels in flowers and siliques [1] | rescue of clv3-2 meristem defects [1]
Gr-CLE-4-B: G. rostochiensis CLE gene of class Gr-CLE-4, cDNA SEQ ID NO: 4 (nucleic acid, listed as Globodera rostochiensis) DNA: ATCATAATTTCCAAAATCCCAATAAAAGCTTCCTCAATAAAGTAAATATGGCCACGAACACAATGCTTTGCCTGTTAATTTTGAGCGTTGTTCTCGCTCTCGCATTTGCTACGAATAAAAAGGGTGATGAAGAACCGGAGAACCATTCGACCGGCATTTTTGGAAAGGTCGGACGAGTTGTGACCGTGGCACTTGCGATGTCGTCTCGTCTGGGAGGGGCTGACGCAACCCGAGGAGGTGGAGCTGTATATGGAGGAAACTTGAAATCCAATCTATTGCCAAACAACAATTGGATGGCGCCACCTCCTCCAATGGCAATGAGAAGTGCCAAAGTCTATGATTCGAAACATTCTCCTGCTGAATATCTTAAAAAATTTGCTCAAGACTTTCGCCGAAAAACCGGCATGCACTCCCAGCGGCATCACGAAGAAACAACACTGGAACAGGAGAAGCGTGTAGCGGGAGCTGGTCCCGACCCAATACATCACCAAGATACAACACTGGAACAGGAGAAGCGTGCAGTCCCAGCTGGGCCCGACCCAAAACATCACGAAGAAACAACACTGGAACAGGAGAAGCGTGCAGTCCCAGCTGGGCCCGACCCAAAACATCACGAAGAAACAACACTGGAACAGGAGAAGCGTGCAGTCCCAGCTGGGCCCGACCCAAAACATCACGAAGAAACAACATTTGAACAGGAGAAGCGTGGTGCGCCAGCTGGGCCCGACCCAATACATCACTGATGCTCTTATTCACAATGCTAAAATATCTGTAGACTATAGATAAATTGCTAGCAACAGATAAATGCCTGATCATAATGCTATGGCTAAGGTATCCGTATTCCGAACTAGCAATATAAGCGCATGCGTAGCTCTATCCATTTAATTTCACAATCTAAAGATTAAAATCTGCAGATATCTAGCTGTAGCTGGGCTATCTGCGGATGGAAAAATCGGCATTCTTAATATAATTTTTAATTGCTTAATAAACTTCAATAAAA | short root phenotype | two | nearly complete rescue
Gr-CLE-4-C: G. rostochiensis CLE gene of class Gr-CLE-4 with a single CLE motif, cDNA SEQ ID NO: 5 (nucleic acid, listed as Globodera rostochiensis) DNA: ATCATAATTTCCAAAATCCCAATAAAAGCTTCCTCAATAAAGTAAATATGGCCACGAACACAATGCTTTGCCTGTTTGTTATAAGCGTTGTTCTCGCTCTCGCATTTGCTACGAATAAAAAGGGTGATGAAGAACCGGAGAACCATTCGACCGGCATTTTTGGAAAGGTCGGACGAGTTGTGACCGTGGCACTTGCGATGTCGTCTCGTCTGGGAGGGGCTGACGCAACCCGAGGAGGTGGAGCTGTATATGGAGGAAACTTGAAATCCAATCAATTGCCAAACAACAATTGGATGGCGCCACCTCCTCCAATGGCAATAAGAAGTGCCAAAGTCTATGATTCGAAACATTCTCCTGCTGAATATCTTAAAAAATTTGCTCAAGACTTTCGCCGAAAAACCGGCATGCACTCCCAGCGGCATCACGAAGAAACAACACTGGAACAGGAGAAGCGTGTAGCGGGAGCTGGTCCCGACCCAATACATCACTGATGCTCTTATTCACAATGCTAAAATATCTGTAGACTATAGATAAATTGCTAGCAACAG | short root phenotype | three to four | partial rescue
Gr-CLE-1: G. rostochiensis CLE gene, cDNA SEQ ID NO: 1, encoding a 204 amino acid secreted protein with four CLE motifs (nucleic acid, listed as Globodera rostochiensis) DNA: TATTAATATTGACTAATTTTTTTTTACAAACATATTAATATTGACTAAAAAAATTGATTTTAATAACGACTATAGATATTACTTATGGAGCAACAAAAATCGTCATATTTCCCATCAAATTCAAATAAAACAATCTCTCCAATAAAGTAAATATGGCCAAGAACGCAATGCTTTGCCTGCTGATTTTGAGCGTTGTTCTTGCTCTCGCATTTGCTACAAATGAAAAGGATGATAAAGAAGCGGGGAACCTTTCGACCGGCATTTTTGGAAAGGCCGGAAGATTTGTGACCGTGGCACTTGCGATGTCGTCTCGTCTGGGAGGGGCTGGCGCATCCCAAGGAGGTGGAGCTGTACATGGAGAAAGCTTGAAATCCAATCAATTGCAAAACGCCTATCGGATGGCGCTTCCTCCTCCAATGCAAATAAAAAGTGCCGAAATTGACGGATGGAAACCGTCTCCTGATGAATATCTTAAAAAATTTGCTCAAGAATTTCGCCGAAACACCGGTATGAAACCCCAGTCGTATAATGAAGAGAAGCGTGTAACGCCGGGAGGGCCCGACCCACTACATAACCGTGAAAAAATTCTGGAAGAACAGAAGCGTGTAACGCCGGGAGGGCCTGACCCACTACATAACCGTGAAAAAACTCTGGAAGAACAGAAGCGTGTAACGCCGGGAGGGCCTGACCCACTACATAACCGTGAAAAAACTCTGGAAGAACAGAAGCGTGTAACGCCGGGAGTGCCCGACCGACAACATCGCTGAGGCAATACAAAAAGAGTGAAAGAAAATCGACGGATGTCTTTAGTAATTTCAATTCGTTCCTATCTTTCTCGTTCTGAAGACCAAATATCGATGATGTTAATGTTATGTTCGGAAAACAATTTCTGATATGCGCACACTTGGCA | short root phenotype; also recorded: much shorter | three to four | partial rescue
